The target of series [1] is RtcR transcriptional activator (full-length S. Typhimurium RtcR) (S. Typhimurium). The experiment in a line: SEC; RtcR (48 uM) mixed with 48 uM refolded 5' tRNA-Leu(UAG) halves ending in 2',3'-cyclic phosphate; Superdex 200 Increase 10/300; 20 mM Tris-HCl pH 7.5, 100 mM NaCl, 1 mM MgCl2, 2% glycerol, 0.5% Tween 20, 1 mM ATP; peaks analysed by SDS-PAGE and denaturing gels. On the technique in general: In gel filtration, larger molecules generally elute earlier.

Series [2] has as its target T1, RtcR (full-length) (Salmonella enterica serovar Typhimurium …, UniProt Q8ZLH7 1-527).
T1 sequence: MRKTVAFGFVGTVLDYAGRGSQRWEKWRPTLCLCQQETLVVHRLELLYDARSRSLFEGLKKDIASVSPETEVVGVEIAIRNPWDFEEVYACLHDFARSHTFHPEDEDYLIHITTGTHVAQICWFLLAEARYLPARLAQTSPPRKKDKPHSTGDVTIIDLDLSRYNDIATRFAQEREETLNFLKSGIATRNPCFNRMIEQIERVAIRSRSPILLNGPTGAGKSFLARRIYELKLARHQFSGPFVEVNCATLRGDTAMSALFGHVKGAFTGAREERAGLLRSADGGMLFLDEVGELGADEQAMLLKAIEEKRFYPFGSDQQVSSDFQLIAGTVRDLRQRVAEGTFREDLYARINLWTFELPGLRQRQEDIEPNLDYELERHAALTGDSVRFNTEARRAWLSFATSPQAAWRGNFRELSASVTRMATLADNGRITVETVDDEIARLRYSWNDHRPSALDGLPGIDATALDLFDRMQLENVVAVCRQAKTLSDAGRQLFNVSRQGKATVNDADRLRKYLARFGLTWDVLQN
The series can be described thus: EMSA; 1 mM ATP; 20 mM Tris-HCl pH 7.5, 50 mM NaCl, 1 mM MgCl2, 0.05% Tween 20; 1 mM ATP for RtcR; 30 min at 4 C then 30 min at room temperature; RNA 1 nM. Particulars: protein: recombinant; chain copies: 2; label: 5'-32P (EMSA). On the technique in general: Mobility shift assays separate free from complexed probe on a gel.

The target in series [3] is T2, RtcR CARF domain (Salmonella enterica serovar Typhimurium …, UniProt Q8ZLH7 1-188).
T2 sequence: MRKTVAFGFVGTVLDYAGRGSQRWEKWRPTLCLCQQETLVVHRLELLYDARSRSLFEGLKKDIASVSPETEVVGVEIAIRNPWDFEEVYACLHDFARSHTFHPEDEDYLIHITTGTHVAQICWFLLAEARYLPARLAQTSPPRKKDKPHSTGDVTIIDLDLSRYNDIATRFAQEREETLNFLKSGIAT
The series can be described thus: EMSA; 20 mM Tris-HCl pH 7.5, 50 mM NaCl, 1 mM MgCl2, 0.05% Tween 20; 1 mM ATP for RtcR; 30 min at 4 C then 30 min at room temperature; RNA 1 nM. The settings on record: protein: recombinant; chain copies: 2; label: 5'-32P (EMSA).

“And” between values parts separate entries of the source, which are not always exact repeats. Equal entries are not always repeated.

The term stoichiometry N denotes the number of molecules, sites or subunits per partner or assembly. Take “RtcR transcriptional activator (full-length S. Typhimurium RtcR) (natural protein)”: the stoichiometry N in series [1] is 6 and 2.
As to GCGGGAGUGGCGAAAUUGGUAGACGCACCAGAUUUAG (structured_RNA, 2',3'-cyclic phosphate 3' end) [tRNALeu(UAG) 5' half, after G of anticodon, cyclic phosphate], the results for the “apparent K (half saturation)” value in series [2] and in series [3] were approximately 125 nM and approximately 200 nM, respectively.
Consider GCGGGAGUGGCGAAAUUGGUAGACGCACCAGAUUUAG (structured_RNA, 3'-phosphate) [tRNALeu(UAG) 5' half, after G of anticodon, 3'-phosphate], for which the binding result in series [3] is “no binding”.

The values above are taken from article PMC7790460, “An RNA Repair Operon Regulated by Damaged tRNAs”.
